Data: patent US11827699 (dated 2023)
Residue numbers refer to the chain shown, from its start. Read-outs that look alike come from different tables or passages of the source. One block for each binder: values may come before it.

Experiments:
Experiment in all cases: SPR
[1] = target: T1, human FcγRIa (human, UniProt P12314)
T1 chain: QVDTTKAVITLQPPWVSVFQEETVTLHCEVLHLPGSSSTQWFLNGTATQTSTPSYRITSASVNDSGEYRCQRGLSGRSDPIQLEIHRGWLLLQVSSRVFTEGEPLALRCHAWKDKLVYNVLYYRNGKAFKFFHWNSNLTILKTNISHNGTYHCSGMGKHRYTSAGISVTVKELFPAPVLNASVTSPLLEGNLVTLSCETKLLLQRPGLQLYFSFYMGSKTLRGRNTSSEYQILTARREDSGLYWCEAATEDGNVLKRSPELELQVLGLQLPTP

[2] = target: T2, human FcγRIIb (human, UniProt P31994)
T2 chain: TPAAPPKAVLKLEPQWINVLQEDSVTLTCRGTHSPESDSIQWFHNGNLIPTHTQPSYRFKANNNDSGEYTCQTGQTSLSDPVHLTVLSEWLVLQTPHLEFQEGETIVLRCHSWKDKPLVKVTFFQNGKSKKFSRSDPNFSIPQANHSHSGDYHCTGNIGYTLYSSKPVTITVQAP

[3] = target: T2, human FcγRIIb
[4] = target: T1, human FcγRIa
[5] = target: T3, human FcγRIIa R131 (human, UniProt P12318)
T3 chain: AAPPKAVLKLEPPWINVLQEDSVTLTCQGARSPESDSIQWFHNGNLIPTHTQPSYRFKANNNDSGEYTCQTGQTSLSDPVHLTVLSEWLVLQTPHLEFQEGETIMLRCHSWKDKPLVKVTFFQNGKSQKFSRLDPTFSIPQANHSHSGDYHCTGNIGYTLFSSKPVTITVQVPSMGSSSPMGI

[6] = target: T2, human FcγRIIb
[7] = target: T1, human FcγRIa
[8] = target: T3, human FcγRIIa R131

B1: IL6R-BP267 (antibody)
chain 1: QVQLQESGPGLVKPSETLSLTCAVSGHSISHDHAWSWVRQPPGEGLEWIGFISYSGITNYNPSLQGRVTISRDNSKNTLYLQMNSLRAEDTAVYYCARSLARTTAMDYWGEGTLVTVSSASTKGPSVFPLAPSSKSTSGGTAALGCLVKDYFPEPVTVSWNSGALTSGVHTFPAVLQSSGLYSLSSVVTVPSSSLGTQTYICNVNHKPSNTKVDKKVEPKSCDKTHTCPPCPAPDLLGDDSVFLFPPKPKDTLMISRTPEVTCVVVDVSEEDGEVKFNWYVDGVEVHNAKTKPREEQYNSTYRVVSVLTVLHQDWLNGKEYKCKVSNKALPAPIEKTISKAKGQPREPQVYTLPPSRDELTKNQVSLTCLVKGFYPSDIAVEWESNGQPENNYKTTPPVLDSDGSFFLYSKLTVDKSRWQQGNVFSCSVMHEALHNHYTQESLSLSP
chain 2: not shown
- Kd [1]: 4 nM

B3: IL6R-BP367 (antibody)
chain 1: B1 chain 1 with E271D
chain 2: not shown
- Kd [3]: 100 nM

B5: IL6R-BP469 (antibody)
chain 1: B1 chain 1 with E270D, Y298D, A332R, E335S
chain 2: not shown
- Kd [5]: 600 nM

B6: IL6R-BP456 (antibody)
chain 1: B1 chain 1 with S269A, A332R, P398M
chain 2: not shown
- Kd [4]: 0.6 nM

B7: IL6R-BP468 (antibody)
chain 1: B1 chain 1 with E270D, Y298D, A332R, K336T
chain 2: not shown
- Kd [6]: 40 nM

B8: IL6R-BP350 (antibody)
chain 1: B1 chain 1 with S269E
chain 2: not shown
- Kd [3]: 100 nM

B10: IL6R-BP223 (antibody)
chain 1: B1 chain 1 with D235E, L236Y, E270D, K328A, A332R
chain 2: not shown
- Kd [8]: 600 nM

Now from value to binder:

- Kd [2]: 4 nM
B2: IL6R-BP464 (antibody)
chain 1: B1 chain 1 with S269A, A332R, P398Y
chain 2: not shown

- Kd [4]: 0.9 nM
B4: IL6R-BP447 (antibody)
chain 1: B1 chain 1 with S269A, A332R, P398A
chain 2: not shown

- Kd [7]: 3 nM
B9: IL6R-BP384 (antibody)
chain 1: B1 chain 1 with E270D, Y298D, A332R, K336R
chain 2: not shown

- Kd [2]: 4 nM
B11: IL6R-BP455 (antibody)
chain 1: B1 chain 1 with S269A, A332R, P398L
chain 2: not shown
